Measured values taken from US20230190880A1, “Formulations of Human Parathyroid Hormone (PTH) and Methods for Producing Same” (Sichuan Luzhou Buchang BIO-Pharmaceutical Co., Ltd., priority 2020, published 2023).

Assay: Screening of pH and buffers: stability of liquid huPTH formulations by SEC-, RP- and CEX-HPLC
Format: physicochemical
Conditions: accelerated stability at 25° C. and 37° C.; pH 4.0-9.0 buffers, 140 mM NaCl, 1 mg/mL huPTH
Protocol: Recombinant huPTH (1 mg/mL) having the amino acid sequence set forth in SEQ ID NO: 2 was used as an active ingredient in the formulations. Table 1 provides a summary of the formulations that were tested in this example.
The results of SEC-HPLC, RP-HPLC and CEX-HPLC performed at 25° C. and 37° C. are depicted in FIGS. 4-6. The results of SEC-HPLC and RP-HPLC performed at 4° C. are depicted in FIGS. 7-8.

CC[C@H](C)[C@H](NC(=O)[C@H](CCC(=O)O)NC(=O)[C@H](CO)NC(=O)[C@@H](NC(=O)[C@@H](N)CO)C(C)C)C(=O)N[C@@H](CCC(N)=O)C(=O)N[C@@H](CC(C)C)C(=O)N[C@@H](CCSC)C(=O)N[C@@H](Cc1cnc[nH]1)C(=O)N[C@@H](CC(N)=O)C(=O)N[C@@H](CC(C)C)C(=O)NCC(=O)N[C@@H](CCCCN)C(=O)N[C@@H](Cc1cnc[nH]1)C(=O)N[C@@H](CC(C)C)C(=O)N[C@@H](CC(N)=O)C(=O)N[C@@H](CO)C(=O)N[C@@H](CCSC)C(=O)N[C@@H](CCC(=O)O)C(=O)N[C@@H](CCCN=C(N)N)C(=O)N[C@H](C(=O)N[C@@H](CCC(=O)O)C(=O)N[C@@H](Cc1c[nH]c2ccccc12)C(=O)N[C@@H](CC(C)C)C(=O)N[C@@H](CCCN=C(N)N)C(=O)N[C@@H](CCCCN)C(=O)N[C@@H](CCCCN)C(=O)N[C@@H](CC(C)C)C(=O)N[C@@H](CCC(N)=O)C(=O)N[C@@H](CC(=O)O)C(=O)N[C@H](C(=O)N[C@@H](Cc1cnc[nH]1)C(=O)N[C@@H](CC(N)=O)C(=O)N[C@@H](Cc1ccccc1)C(=O)O)C(C)C)C(C)C [huPTH]
stability profile as a function of pH: best stability profile at pH 5
